From article doi:10.1101/2024.05.15.594416 (bioRxiv, 2024)
Where a chain is given by its changes, count along the chain named. Names may count otherwise.

Columns and labels:
[1] = target: T1, soluble CD14 (sCD14), wildtype (human, UniProt P08571 20-367); assay: BLI
T1 sequence (looked up): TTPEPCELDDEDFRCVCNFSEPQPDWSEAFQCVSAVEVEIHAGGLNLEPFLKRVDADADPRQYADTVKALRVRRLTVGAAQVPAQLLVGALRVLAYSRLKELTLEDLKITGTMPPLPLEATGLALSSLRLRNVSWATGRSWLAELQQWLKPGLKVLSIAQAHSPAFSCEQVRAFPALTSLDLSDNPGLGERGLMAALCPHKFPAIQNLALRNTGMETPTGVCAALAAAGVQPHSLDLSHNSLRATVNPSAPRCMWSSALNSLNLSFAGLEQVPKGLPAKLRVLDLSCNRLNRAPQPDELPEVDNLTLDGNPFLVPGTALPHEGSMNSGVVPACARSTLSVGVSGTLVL

[2] = target: T2, soluble CD14 Surface II mutant (R90E/R92E/R117E) (human, UniProt P08571 20-367, R90E | R92E | R117E); assay: BLI
T2 sequence (looked up): T1 sequence (looked up) with R71E, R73E, R98E

Kd [1]: 3.9 µM
Kd [2]: 10 µM
B1: S100A9/C3S/P114C, biotinylated (natural protein, human)
chain: TSKMSQLERNIETIINTFHQYSVKLGHPDTLNQGEFKELVRKDLQNFLKKENKNEKVIEHIMEDLDTNADKQLSFEEFIMLMARLTWASHEKMHEGDEGPGHHHKPGLGEGTC
modifications: biotin (EZ-link BMCC kit; biotinylation confirmed by MALDI-TOF)
